# Where two headings read alike, the source gives them in different places.
# What was measured:
# mouse serum proteins = experiment: Serum protein (albumin) binding by ultrafiltration, mouse serum; type: in vitro ADME; details: 37° C.
# Procedure: (§1) The devices were pre-treated with PBS containing Tween 20 (5% v/v) as disclosed in Hausner 2007, followed by triplicate rinses with PBS. An aliquot of each formulated radiotracer in PBS (≤25 μL, 20-60 KBq) was thoroughly mixed with 0.5 mL serum at 37° C. in a microfuge tube. The mixture was incubated at 37° C. for 5 min and an aliquot (50 μL) of was transferred to a tube for γ-counting. The remaining sample was transferred to a Centrifree Ultrafiltration device and centrifuged for 40 min. at 1500×g at ambient temperature (20-24° C.). An aliquot (50 μL) of the filtrate was transferred to a tube for γ-counting. For each radiotracer, a blank was run using 0.5 mL PBS/Tween 20 (5% v/v) instead of serum (n=4) to determine non-specific binding. Following γ-counting, the protein-bound radioactivity was calculated by subtracting the counts measured in the filtrate aliquot (i.e., not protein bound) from the counts in the corresponding serum aliquot. The data are expressed as mean±standard deviation of fraction of radioactivity bound to protein after subtraction of non-specific binding determined in the blank.
# [1] = Biodistribution in mice bearing BxPC-3 tumors; type: in vivo; details: female, nu/nu nude, mouse, iv, total radioactivity; for tissue uptake at 1 h: 1 h p.i.; for tissue uptake at 4 h: 4 h p.i.; for tissue uptake at 24 h: 24 h p.i.; for tissue uptake at 48 h: 48 h p.i.; for tissue uptake at 72 h: 72 h p.i.
# Procedure: (§2) Female nu/nu nude mice (6-8 weeks old) were purchased from Charles River Laboratories (Wilmington, MA, USA) and handled according to the UC Davis Institutional Animal Care and Use Committee. BxPC-3 cells (5×10^6) in 100 μl 1:1 GFR-Matrigel: serum-free RPMI were implanted subcutaneously into the left shoulder flank and allowed to grow for approximately 2 weeks (therapy study) and 3 weeks (0.5-1 cm in diameter, for imaging and biodistribution studies). All cells were evaluated with flow cytometry before injection to confirm integrin expression levels. Food and water were available ad libitum.
# (§3) For blocking studies, respective non-chelated cold peptide (30 mg/kg, 10 mg/mL (DOTA-5G) and 48 mg/kg, 16 mg/mL (DOTA-ABM-5G) solution in PBS) was injected 10 min. before the formulated radiotracer. At each time point, the mice (n=3/time point/radiotracer) were anesthetized and sacrificed. The tissues were collected, rinsed with PBS, and the radioactivity of each measured with a gamma counter. Radioactivity concentrations were calibrated, decay-corrected, and expressed as percent of injected dose per gram of tissue (% ID/g).
# BxPC-3 (αvβ6 (+)) tumors = experiment: Biodistribution in mice bearing BxPC-3 tumors; type: in vivo
# Procedure: as §2, §3
# human serum proteins = experiment: Serum protein (albumin) binding by ultrafiltration, human serum; type: in vitro ADME; details: 37° C.
# Procedure: as §1
# [2] = system: integrin αvβ6(+) BxPC-3 cells; experiment: Cell binding, internalization and efflux; details: 37° C.
# [3] = In vitro serum stability, human serum; type: in vitro ADME; details: 37° C., read-out: stability in human serum (intact radiotracer)
# Procedure: Mouse or human serum (500 μl, both purchased from Millipore Sigma) was combined with an aliquot of the formulated radiotracer (100-200 μCi) and incubated at 37° C. Aliquots (100-200 μl) were drawn for analysis at 1 and 2 h post-incubation for the ^68Ga radiotracers and 1 and 24 h post-incubation for ^177Lu radiotracers, mixed with absolute ethanol (500 μl, 4° C.), and centrifuged (2300× g, 3 min) to precipitate out serum proteins. The supernatant was diluted with HPLC Solvent A and analyzed by radio-HPLC to determine the fraction of intact radiotracer as disclosed in Hausner et al., “In vitro and in vivo evaluation of the effects of aluminum [^18F]fluoride radiolabeling on an integrin αvβ6-specific peptide” Nuclear medicine and biology.
# [4] = BxPC-3 tumor, read-out: uptake BxPC-3 tumor
# [5] = bladder, read-out: uptake Bladder
# [6] = gall bladder, read-out: uptake Gall Bladder
# [7] = kidneys, read-out: uptake Kidneys
# [8] = large intestines, read-out: uptake Lg Intestines
# [9] = muscle, read-out: uptake Muscle
# [10] = pancreas, read-out: uptake Pancreas
# [11] = small intestines, read-out: uptake Sm Intestines
# [12] = spleen, read-out: uptake Spleen
# [13] = stomach, read-out: uptake Stomach
compound,measurement,setting,value
CNC(=O)C(CCCCNC(=O)C(CC(=O)O)NC(=O)CCCNC(=O)CCCc1ccc(I)cc1)NC(=O)CN1CCN2CCN3CCN(CC1)CC(=O)[O][177Lu]([O]C(=O)C2)[O]C(=O)C3 (centres unmarked) [[^177Lu]Lu DOTA-ABM-5G],albumin (serum protein) binding,mouse serum proteins,54.4±2.8%
same,tissue uptake at 1 h,[1]; [4],4.54 ± 0.42 %ID/g
same,tissue uptake at 4 h,[1]; [4],7.15 ± 3.04 %ID/g
same,tissue uptake at 24 h,[1]; [4],5.25 ± 0.71 %ID/g
same,tissue uptake at 48 h,[1]; [4],5.12 ± 0.47 %ID/g
same,tissue uptake at 72 h,[1]; [4],5.29 ± 0.75 %ID/g
same,tissue uptake at 1 h,[1]; [5],6.75 ± 2.39 %ID/g
same,tissue uptake at 24 h,[1]; [5],2.91 ± 0.16 %ID/g
same,tissue uptake at 48 h,[1]; [5],2.69 ± 0.33 %ID/g
same,tissue uptake at 72 h,[1]; [5],3.29 ± 0.63 %ID/g
same,tissue uptake at 1 h,"[1]; blood, read-out: uptake Blood",5.36 ± 0.71 %ID/g
same,tissue uptake at 24 h,"[1]; blood, read-out: uptake Blood",0.08 ± 0.01 %ID/g
same,tissue uptake at 48 h,"[1]; blood, read-out: uptake Blood",0.02 %ID/g
same,tissue uptake at 72 h,"[1]; blood, read-out: uptake Blood",0.01 %ID/g
same,tissue uptake at 1 h,"[1]; bone, read-out: uptake Bone",0.66 ± 0.15 %ID/g
same,tissue uptake at 24 h,"[1]; bone, read-out: uptake Bone",0.27 ± 0.08 %ID/g
same,tissue uptake at 48 h,"[1]; bone, read-out: uptake Bone",0.16 ± 0.19 %ID/g
same,tissue uptake at 72 h,"[1]; bone, read-out: uptake Bone",0.19 ± 0.13 %ID/g
same,tissue uptake at 1 h,"[1]; brain, read-out: uptake Brain",0.14 ± 0.01 %ID/g
same,tissue uptake at 24 h,"[1]; brain, read-out: uptake Brain",0.04 ± 0.01 %ID/g
same,tissue uptake at 48 h,"[1]; brain, read-out: uptake Brain",0.02 %ID/g
same,tissue uptake at 72 h,"[1]; brain, read-out: uptake Brain",0.03 %ID/g
same,tissue uptake at 1 h,[1]; [6],1.72 ± 0.46 %ID/g
same,tissue uptake at 24 h,[1]; [6],1.11 ± 0.71 %ID/g
same,tissue uptake at 48 h,[1]; [6],0.71 ± 0.13 %ID/g
same,tissue uptake at 72 h,[1]; [6],1.09 ± 0.61 %ID/g
same,tissue uptake at 1 h,"[1]; heart, read-out: uptake Heart",2.05 ± 0.37 %ID/g
same,tissue uptake at 24 h,"[1]; heart, read-out: uptake Heart",0.71 ± 0.05 %ID/g
same,tissue uptake at 48 h,"[1]; heart, read-out: uptake Heart",0.64 ± 0.06 %ID/g
same,tissue uptake at 72 h,"[1]; heart, read-out: uptake Heart",0.46 ± 0.11 %ID/g
same,tissue uptake at 1 h,[1]; [7],20.9 ± 3.1 %ID/g
same,tissue uptake at 24 h,[1]; [7],12.3 ± 1.24 %ID/g
same,tissue uptake at 48 h,[1]; [7],10.1 ± 1.04 %ID/g
same,tissue uptake at 72 h,[1]; [7],8.84 ± 1.15 %ID/g
same,tissue uptake at 1 h,[1]; [8],6.31 ± 1.86 %ID/g
same,tissue uptake at 4 h,[1]; [8],< 7 %ID/g
same,tissue uptake at 24 h,[1]; [8],3.63 ± 0.09 %ID/g
same,tissue uptake at 48 h,[1]; [8],3.13 ± 0.53 %ID/g
same,tissue uptake at 72 h,[1]; [8],3.01 ± 0.44 %ID/g
same,tissue uptake at 1 h,"[1]; liver, read-out: uptake Liver",1.05 ± 0.05 %ID/g
same,tissue uptake at 4 h,"[1]; liver, read-out: uptake Liver",< 1 %ID/g
same,tissue uptake at 24 h,"[1]; liver, read-out: uptake Liver",0.22 ± 0.01 %ID/g
same,tissue uptake at 48 h,"[1]; liver, read-out: uptake Liver",0.16 ± 0.02 %ID/g
same,tissue uptake at 72 h,"[1]; liver, read-out: uptake Liver",0.12 ± 0.01 %ID/g
same,tissue uptake at 1 h,"[1]; lung, read-out: uptake Lung",2.68 ± 0.21 %ID/g
same,tissue uptake at 24 h,"[1]; lung, read-out: uptake Lung",1.1 ± 0.15 %ID/g
same,tissue uptake at 48 h,"[1]; lung, read-out: uptake Lung",0.68 ± 0.08 %ID/g
same,tissue uptake at 72 h,"[1]; lung, read-out: uptake Lung",0.53 ± 0.1 %ID/g
same,tissue uptake at 1 h,[1]; [9],0.96 ± 0.24 %ID/g
same,tissue uptake at 24 h,[1]; [9],0.52 ± 0.08 %ID/g
same,tissue uptake at 48 h,[1]; [9],0.52 ± 0.03 %ID/g
same,tissue uptake at 72 h,[1]; [9],0.42 ± 0.02 %ID/g
same,tissue uptake at 1 h,[1]; [10],0.92 ± 0.07 %ID/g
same,tissue uptake at 24 h,[1]; [10],0.6 ± 0.11 %ID/g
same,tissue uptake at 48 h,[1]; [10],0.5 ± 0.09 %ID/g
same,tissue uptake at 72 h,[1]; [10],0.36 ± 0.12 %ID/g
same,tissue uptake at 1 h,"[1]; skin, read-out: uptake Skin",2.16 ± 0.35 %ID/g
same,tissue uptake at 24 h,"[1]; skin, read-out: uptake Skin",1.49 ± 0.57 %ID/g
same,tissue uptake at 48 h,"[1]; skin, read-out: uptake Skin",0.95 ± 0.05 %ID/g
same,tissue uptake at 72 h,"[1]; skin, read-out: uptake Skin",1.08 ± 0.16 %ID/g
same,tissue uptake at 1 h,[1]; [11],5.46 ± 0.54 %ID/g
same,tissue uptake at 24 h,[1]; [11],3.02 ± 0.32 %ID/g
same,tissue uptake at 48 h,[1]; [11],1.74 ± 0.22 %ID/g
same,tissue uptake at 72 h,[1]; [11],0.71 ± 0.16 %ID/g
same,tissue uptake at 1 h,[1]; [12],0.75 ± 0.03 %ID/g
same,tissue uptake at 24 h,[1]; [12],0.12 ± 0.01 %ID/g
same,tissue uptake at 48 h,[1]; [12],0.1 ± 0.02 %ID/g
same,tissue uptake at 72 h,[1]; [12],0.1 ± 0.01 %ID/g
same,tissue uptake at 1 h,[1]; [13],9.16 ± 0.58 %ID/g
same,tissue uptake at 24 h,[1]; [13],7.55 ± 1.45 %ID/g
same,tissue uptake at 48 h,[1]; [13],5.49 ± 0.27 %ID/g
same,tissue uptake at 72 h,[1]; [13],4.76 ± 1.22 %ID/g
same,BxPC-3/kidney ratio,BxPC-3 (αvβ6 (+)) tumors; 1 h p.i.,0.22±0.05
same,BxPC-3/large intestine ratio,BxPC-3 (αvβ6 (+)) tumors; 1 h p.i.,0.77±0.25
same,BxPC-3/stomach ratio,BxPC-3 (αvβ6 (+)) tumors; 1 h p.i.,0.50±0.08
same,uptake Blood,BxPC-3 (αvβ6 (+)) tumors; 1 h p.i.,5.36±0.71 % ID/g
same,uptake BxPC-3 tumor,BxPC-3 (αvβ6 (+)) tumors; 1 h p.i.,4.54±0.42 % ID/g
same,uptake Kidneys,BxPC-3 (αvβ6 (+)) tumors; 1 h p.i.,20.89±3.1 % ID/g
same,uptake Stomach,BxPC-3 (αvβ6 (+)) tumors; 1 h p.i.,9.16±0.58 % ID/g
same,BxPC-3/kidney ratio,BxPC-3 (αvβ6 (+)) tumors; 72 h p.i.,0.60±0.02
same,BxPC-3/large intestine ratio,BxPC-3 (αvβ6 (+)) tumors; 72 h p.i.,1.77±0.26
same,BxPC-3/stomach ratio,BxPC-3 (αvβ6 (+)) tumors; 72 h p.i.,1.16±0.30
same,uptake Blood,BxPC-3 (αvβ6 (+)) tumors; 72 h p.i.,0.01±0.00 % ID/g
same,uptake BxPC-3 tumor,BxPC-3 (αvβ6 (+)) tumors; 72 h p.i.,5.29±0.75 % ID/g
same,uptake Kidneys,BxPC-3 (αvβ6 (+)) tumors; 72 h p.i.,8.84±1.15 % ID/g
same,uptake Stomach,BxPC-3 (αvβ6 (+)) tumors; 72 h p.i.,4.76±1.22 % ID/g
same,uptake in BxPC-3 tumor as compared to [^177Lu]Lu DOTA-5G,BxPC-3 (αvβ6 (+)) tumors; at all times (1-72 h),at least 4 fold
same,albumin (serum protein) binding,human serum proteins,58.1±0.4%
same,bound to BxPC-3 cells (of total radioactivity),[2]; 1 h,29±1.4%
same,internalized into BxPC-3 cells (of total radioactivity),[2]; 1 h,21.6±0.01%
same,efflux from BxPC-3 cells,[2]; at 1 hour post-internalization,5%
same,remaining at 24 h,[3],≥ 97%
